Reference: patent US20200079833A1 (AstraZeneca / MedImmune, published 2020)
Starred links: 1 amine or outer side, 2 acyl side, 3 side chain; linkers in the order of their positions; H or OH if unused. Non-standard residues stand in square brackets, D forms with d. Groups on a side chain read outwards from the residue. Primed or numbered codes have the meaning given here. No end group written: not given here. *: point of attachment. γGlu = O=C(O)[C@H](CCC(=O)[*:2])N[*:1]; Stearoyl = CCCCCCCCCCCCCCCCCC(=O)*; αMeF = C[C@](N)(Cc1ccccc1)C(=O)O; αMeK = C[C@](N)(CCCCN)C(=O)O; αMeS = C[C@](N)(CO)C(=O)O; PEG2′ = not defined here; Aib = CC(C)(N)C(=O)O

biological target: GLP-1 receptor (human, UniProt P43220 24-463); assay: cell-based or functional assay

| Primary assay EC50 (cAMP), Mean pM GLP-1R | Primary assay EC50 (cAMP), n1 | Primary assay EC50 (cAMP), n2 | Binder |
| --- | --- | --- | --- |
| 18.8 pM | 0.0221 nM | 0.0155 nM | H[Aib]EGS[αMeF]TSDV[αMeS]S[αMeF]LEGEAA[αMeK]EFIK([PEG2′-PEG2′-γGlu-Stearoyl])WVVEGG-NH2 [SEQ ID NO 68] |
| 153 pM | 0.14 nM | 0.17 nM | H[Aib]EGS[αMeF]TSDVSK([PEG2′-PEG2′-γGlu-Stearoyl])YLEGEAAKE[αMeF]IA[αMeF]VVEGG-NH2 [SEQ ID NO 57] |
| 150 pM | 0.203 nM | 0.0979 nM | H[Aib]EGS[αMeF]TSDV[αMeS]S[αMeF]LEGEAAEEFIK([PEG2′-PEG2′-γGlu-Stearoyl])WVVEGG-NH2 [SEQ ID NO 66] |
| 1.9 pM | 0.002 nM | 0.0018 nM | H[Aib]EGS[αMeF]TSDVSK([PEG2′-PEG2′-PEG2′-Stearoyl])YLEGEAAEE[αMeF]IA[αMeF]VVEGG-NH2 [SEQ ID NO 62] |

Further lines, the binder ahead of its results:

| Binder | Primary assay EC50 (cAMP), Mean pM GLP-1R | Primary assay EC50 (cAMP), n1 | Primary assay EC50 (cAMP), n2 |
| --- | --- | --- | --- |
| H[Aib]EGS[αMeF]TSDVSK([PEG2′-PEG2′-γGlu-Stearoyl])YLEGEAA[αMeK]E[αMeF]IA[αMeF]VVEGG-NH2 [SEQ ID NO 60] | 49 pM | 0.049 nM | 0.05 nM |
| H[Aib]EGS[αMeF]TSDV[αMeS]S[αMeF]LEGEAAKEFIK([PEG2′-PEG2′-γGlu-Stearoyl])WVVEGG-NH2 [SEQ ID NO 65] | 16.9 pM | 0.0197 nM | 0.014 nM |
| H[Aib]EGS[αMeF]TSDVSK([PEG2′-PEG2′-γGlu-Stearoyl])YLEGEAAEE[αMeF]IA[αMeF]VVEGG-NH2 [SEQ ID NO 58] | 4720 pM | 5.2 nM | 4.3 nM |

biological target: glucagon receptor (human, UniProt P47871 26-477); assay: cell-based or functional assay
Sequence (P47871 26-477): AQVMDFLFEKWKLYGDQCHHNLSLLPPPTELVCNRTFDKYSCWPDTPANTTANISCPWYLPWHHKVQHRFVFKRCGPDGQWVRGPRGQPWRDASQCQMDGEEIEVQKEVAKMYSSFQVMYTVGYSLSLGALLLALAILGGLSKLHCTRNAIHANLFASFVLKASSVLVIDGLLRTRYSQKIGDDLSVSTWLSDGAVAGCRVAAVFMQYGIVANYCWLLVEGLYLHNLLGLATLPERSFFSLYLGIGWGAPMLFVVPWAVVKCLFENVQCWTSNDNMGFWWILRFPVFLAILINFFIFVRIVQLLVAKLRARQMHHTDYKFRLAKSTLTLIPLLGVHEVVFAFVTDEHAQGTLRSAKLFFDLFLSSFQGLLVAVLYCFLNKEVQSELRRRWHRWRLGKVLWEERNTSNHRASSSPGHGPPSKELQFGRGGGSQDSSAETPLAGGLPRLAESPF

| Primary assay EC50 (cAMP), n1 | Primary assay EC50 (cAMP), n2 | Binder |
| --- | --- | --- |
| 25 nM | 25 nM | H[Aib]EGS[αMeF]TSDV[αMeS]S[αMeF]LEGEAA[αMeK]EFIK([PEG2′-PEG2′-γGlu-Stearoyl])WVVEGG-NH2 [SEQ ID NO 68] |
| 25 nM | 25 nM | H[Aib]EGS[αMeF]TSDVSK([PEG2′-PEG2′-γGlu-Stearoyl])YLEGEAAKE[αMeF]IA[αMeF]VVEGG-NH2 [SEQ ID NO 57] |
| 25.1 nM | 25.1 nM | H[Aib]EGS[αMeF]TSDV[αMeS]S[αMeF]LEGEAAEEFIK([PEG2′-PEG2′-γGlu-Stearoyl])WVVEGG-NH2 [SEQ ID NO 66] |
| 25 nM | 25 nM | H[Aib]EGS[αMeF]TSDVSK([PEG2′-PEG2′-PEG2′-Stearoyl])YLEGEAAEE[αMeF]IA[αMeF]VVEGG-NH2 [SEQ ID NO 62] |

The next lines start with the binder.

| Binder | Primary assay EC50 (cAMP), n1 | Primary assay EC50 (cAMP), n2 |
| --- | --- | --- |
| H[Aib]EGS[αMeF]TSDVSK([PEG2′-PEG2′-γGlu-Stearoyl])YLEGEAA[αMeK]E[αMeF]IA[αMeF]VVEGG-NH2 [SEQ ID NO 60] | 25 nM | 25 nM |
| H[Aib]EGS[αMeF]TSDV[αMeS]S[αMeF]LEGEAAKEFIK([PEG2′-PEG2′-γGlu-Stearoyl])WVVEGG-NH2 [SEQ ID NO 65] | 25.1 nM | 25.1 nM |
| H[Aib]EGS[αMeF]TSDVSK([PEG2′-PEG2′-γGlu-Stearoyl])YLEGEAAEE[αMeF]IA[αMeF]VVEGG-NH2 [SEQ ID NO 58] | 25 nM | 25 nM |

biological target: T1, glucose-dependent insulinotropic peptide (gastric inhibitory polypeptide) receptor (human, UniProt P48546 22-466); assay: cell-based or functional assay
T1 sequence (looked up): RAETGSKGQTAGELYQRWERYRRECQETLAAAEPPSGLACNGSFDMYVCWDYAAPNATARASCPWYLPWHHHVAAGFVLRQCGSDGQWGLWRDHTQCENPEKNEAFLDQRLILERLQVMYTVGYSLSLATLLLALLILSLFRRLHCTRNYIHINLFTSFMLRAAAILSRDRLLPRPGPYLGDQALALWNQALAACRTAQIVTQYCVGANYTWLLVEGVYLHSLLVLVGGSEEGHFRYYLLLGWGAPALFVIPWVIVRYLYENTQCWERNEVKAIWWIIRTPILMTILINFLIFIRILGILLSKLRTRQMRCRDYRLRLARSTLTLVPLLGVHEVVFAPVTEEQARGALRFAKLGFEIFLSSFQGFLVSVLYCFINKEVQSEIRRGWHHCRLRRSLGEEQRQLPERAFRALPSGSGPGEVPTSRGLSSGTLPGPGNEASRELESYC

| Primary assay EC50 (cAMP), n1 | Primary assay EC50 (cAMP), n2 | Binder |
| --- | --- | --- |
| 25 nM | 25 nM | H[Aib]EGS[αMeF]TSDV[αMeS]S[αMeF]LEGEAA[αMeK]EFIK([PEG2′-PEG2′-γGlu-Stearoyl])WVVEGG-NH2 [SEQ ID NO 68] |
| 25 nM | 25 nM | H[Aib]EGS[αMeF]TSDVSK([PEG2′-PEG2′-γGlu-Stearoyl])YLEGEAAKE[αMeF]IA[αMeF]VVEGG-NH2 [SEQ ID NO 57] |
| 25.1 nM | 25.1 nM | H[Aib]EGS[αMeF]TSDV[αMeS]S[αMeF]LEGEAAEEFIK([PEG2′-PEG2′-γGlu-Stearoyl])WVVEGG-NH2 [SEQ ID NO 66] |
| 25 nM | 25 nM | H[Aib]EGS[αMeF]TSDVSK([PEG2′-PEG2′-PEG2′-Stearoyl])YLEGEAAEE[αMeF]IA[αMeF]VVEGG-NH2 [SEQ ID NO 62] |

The next lines start with the binder.

| Binder | Primary assay EC50 (cAMP), n1 | Primary assay EC50 (cAMP), n2 |
| --- | --- | --- |
| H[Aib]EGS[αMeF]TSDVSK([PEG2′-PEG2′-γGlu-Stearoyl])YLEGEAA[αMeK]E[αMeF]IA[αMeF]VVEGG-NH2 [SEQ ID NO 60] | 25 nM | 25 nM |
| H[Aib]EGS[αMeF]TSDV[αMeS]S[αMeF]LEGEAAKEFIK([PEG2′-PEG2′-γGlu-Stearoyl])WVVEGG-NH2 [SEQ ID NO 65] | 25.1 nM | 25.1 nM |
| H[Aib]EGS[αMeF]TSDVSK([PEG2′-PEG2′-γGlu-Stearoyl])YLEGEAAEE[αMeF]IA[αMeF]VVEGG-NH2 [SEQ ID NO 58] | 25 nM | 25 nM |
